In paper PMC4468861:

Molecular target: N-terminally GST-tagged M. jannaschii SR(aa93-408) (M. jannaschii) (UniProt Q57739)
Chain of UniProt Q57739 (Q57739 93-408): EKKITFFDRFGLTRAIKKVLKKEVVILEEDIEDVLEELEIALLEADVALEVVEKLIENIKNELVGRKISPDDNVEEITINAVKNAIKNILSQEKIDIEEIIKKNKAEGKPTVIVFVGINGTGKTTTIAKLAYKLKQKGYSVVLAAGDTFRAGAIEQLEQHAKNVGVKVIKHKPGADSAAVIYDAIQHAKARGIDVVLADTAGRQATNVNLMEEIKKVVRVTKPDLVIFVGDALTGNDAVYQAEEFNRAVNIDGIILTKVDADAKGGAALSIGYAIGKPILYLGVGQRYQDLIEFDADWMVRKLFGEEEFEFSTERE

GTPase rate of the SRP-SR complex in multiple turnover reactions (0.5 uM SRP, SR 0-25 uM, 25 °C), against SRP complexes containing SRP54-ss as the text prints (fl-SRP54 by the legend of Fig. 1b): 20 fold
Substance: M. jannaschii SRP core complex containing fl-SRP54-ss, SRP19 and SRP RNA (from UniProt Q57565 1-451; Q58440 1-87)
